Results as given in patent publication US20210070881A1 (DENALI THERAPEUTICS, published 2021).

Target: T1, recombinant BACE1 (BACE1 extracellular domain, R&D Systems Cat#931-AS) (UniProt P56817 22-457)
T1 construct: extracellular domain; also called BACE1 extracellular domain protein
Experiment: SPR Biacore

T1 sequence (P56817 22-457): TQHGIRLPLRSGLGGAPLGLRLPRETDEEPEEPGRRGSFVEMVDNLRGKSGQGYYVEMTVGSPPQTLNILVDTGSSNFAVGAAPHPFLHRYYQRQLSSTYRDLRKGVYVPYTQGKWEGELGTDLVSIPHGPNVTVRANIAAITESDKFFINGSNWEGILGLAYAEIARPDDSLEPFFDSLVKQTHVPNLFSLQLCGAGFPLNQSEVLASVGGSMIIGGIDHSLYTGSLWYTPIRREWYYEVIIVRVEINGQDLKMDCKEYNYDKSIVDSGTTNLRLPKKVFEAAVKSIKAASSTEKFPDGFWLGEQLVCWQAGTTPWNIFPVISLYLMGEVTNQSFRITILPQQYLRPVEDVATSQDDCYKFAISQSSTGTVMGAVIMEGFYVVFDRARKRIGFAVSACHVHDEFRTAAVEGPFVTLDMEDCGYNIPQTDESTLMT

B1: 2H8.03 (antibody, human IgG1, V domains shown)
VH: EVQLQQSGAELVRPGTSVKLSCKASGYTFTSYWIHWVKQRPGQGLEWIGMIDPSDSYTKYNQKFKDKATLTVDTSSSTTYMHLSSLTSEDSAVYYCARSGVAFPYWGQRTLVTVSA
VL: DIVMTQSQKFMSKSVGDTVSVTCKASQDVGRNVAWYQQKSGQSPKSLIYSASHRYSGVPDRFTGSGSGTDFTLTISNVQSEDLADYFCQQYNSYPYTFGGGTRLEIK
notes: human IgG1/kappa; also called 2H8_HCvar3 + 2H8_LC
B1 gave a Kd of 17.9 nM, a koff of 0.000289 s⁻¹ and a kon of 16100 M⁻¹ s⁻¹.

B2: 2H8.29 (antibody, human IgG1, V domains shown)
VH: EVQLQQPGAEVVRPGTSVKLSCKASGYTFTNYWMHWVKQRPGQGLEWIGMIDPSDNYTKYNQKLKGKATLTVDTSSSTANMHVNSLTSEDSAVYFCARSGVAFPYWGQGTLVTVSA
VL: DIVMTQSQKFMSTSVGDRVSVTCKASQNVGTNVAWYQQKSGQSPKALIYSASHRYSGVPDRFTGSGSGTDFTLTISNVQSEDLAEYFCQQYNSYPYTFGGGTKLEIK
notes: human IgG1/kappa; also called 2H8_HCvar5 + 2H8_LCvar5
B2 was tested, and the Kd was 18.6 nM, the koff was 0.000255 s⁻¹ and the kon was 13700 M⁻¹ s⁻¹.

B3: 2H8.30 (antibody, human IgG1, V domains shown)
VH: EVQLQQSGAELVRPGTSVKLSCKASGYTFNNYWMHWVKQRPGQGLEWIGMIDPSDDDIKNNQKFKGKATLTVDTSSSTAYMQLISLTSEDSAVYYCARSGVALPYWGQGTLVTVSA
VL: DIVMTQSQKFMSTSVGDRVSVTCKASQNVGTNVAWYQQKSGQSPKALIYSASHRYSGVPDRFTGSGSGTDFTLTISNVQSEDLAEYFCQQYNSYPYTFGGGTKLEIK
notes: human IgG1/kappa; also called 2H8_HCvar6 + 2H8_LCvar5
In the case of B3, the Kd is reported as 21.2 nM, the koff is reported as 0.000274 s⁻¹ and the kon is reported as 12900 M⁻¹ s⁻¹.

B4: 2H8.26 (antibody, human IgG1, V domains shown)
VH: EVQLQQPGTELVRPGTSVKLSCKASGYTFTNYWMHWIKQRPGQGLEWIGMIDPSDTYTKFNQNFKGKATLTVDTSSSTAYMQLNSLTSEDSAVYYCARSGVAFPYWGQGTTVTVSS
VL: DIVMTQSQKFMSTSVGDRVSVTCKASQNVGTNVAWYQQKSGQSPKALIYSASHRYSGVPDRFTGSGSGTDFTLTISNVQSEDLAEYFCQQYNSYPYTFGGGTKLEIK
notes: human IgG1/kappa; also called 2H8_HCvar2 + 2H8_LCvar5
Work on B4 yielded a Kd of 18.3 nM, a koff of 0.000312 s⁻¹ and a kon of 17000 M⁻¹ s⁻¹.

B5: 2H8.33 (antibody, human IgG1, V domains shown)
VH: EVQLQQSGAELVRPGTSVKLSCKASGYTFTSYWIHWVKQRPGQGLEWIGMIDPSDSYTKYNQKFKDKATLTVDTSSSTTYMHLSSLTSEDSAVYYCARSGVAFPYWGQRTLVTVSA
VL: DIQMTQSQKFMSKSVGDRVSVTCKASQNVGSNVAWYQQKSGQSPKSLIYSASHRYSGVPDRFTGSGSGTDFTLTISNVQSEDLADYFCQQYNSYPYTFGGGTRLEIK
notes: human IgG1/kappa; also called 2H8_HCvar3 + 2H8_LCvar6
For B5, the Kd was 11.8 nM, the koff was 0.000171 s⁻¹ and the kon was 14500 M⁻¹ s⁻¹.

B6: 2H8.08 (antibody, human IgG1, V domains shown)
VH: EVQLQQPGTELVRPGTSVKLSCKASGYTFTNYWMHWIKQRPGQGLEWIGMIDPSDTYTKFNQNFKGKATLTVDTSSSTAYMQLNSLTSEDSAVYYCARSGVAFPYWGQGTTVTVSS
VL: DIVMTQSQKFMSTSVGDRVSVTCKASQNVGTNVAWYQQKPGQSPKALIYSASHRYSGVPDRFTGSGSGTDFTLTISNVQSEDLAEYFCQQYNSYMYTFGGGTKLEIK
notes: human IgG1/kappa; also called 2H8_HCvar2 + 2H8_LCvar2
B6 was tested, and the Kd was 20.9 nM, the koff was 0.000299 s⁻¹ and the kon was 14300 M⁻¹ s⁻¹.

B7: 2H8.20 (antibody, human IgG1, V domains shown)
VH: EVQLQQPGTELVRPGTSVKLSCKASGYTFTNYWMHWIKQRPGQGLEWIGMIDPSDTYTKFNQNFKGKATLTVDTSSSTAYMQLNSLTSEDSAVYYCARSGVAFPYWGQGTTVTVSS
VL: DIVMTQSQKFMSTSVGDRVSITCKASQNVGTNVAWYQQKPGQSPKALIYSASYRYSGVPDRFTGSGSGTDFTLTISNVQSEDLAEYFCQQYNSYPYTFGGGTKLEIK
notes: human IgG1/kappa; also called 2H8_HCvar2 + 2H8_LCvar4
B7 gave a Kd of 93.4 nM, a koff of 0.00147 s⁻¹ and a kon of 15800 M⁻¹ s⁻¹.

B8: 2H8.25 (antibody, human IgG1, V domains shown)
VH: EVQLQQSGPELVKPGASVKLSCKASGYTFTNFWIHWLKQRPGQGLEWIGMIDPSDSYTKYNQKFKAKATLTVDTSSSTTYMHLSSLTSEDSAVYYCARSGVAFPYWGQRTLVTVSA
VL: DIVMTQSQKFMSTSVGDRVSVTCKASQNVGTNVAWYQQKSGQSPKALIYSASHRYSGVPDRFTGSGSGTDFTLTISNVQSEDLAEYFCQQYNSYPYTFGGGTKLEIK
notes: human IgG1/kappa; also called 2H8_HC + 2H8_LCvar5
B8 gave a Kd of 15.2 nM, a koff of 0.000251 s⁻¹ and a kon of 16500 M⁻¹ s⁻¹.

B9: 2H8.14 (antibody, human IgG1, V domains shown)
VH: EVQLQQPGTELVRPGTSVKLSCKASGYTFTNYWMHWIKQRPGQGLEWIGMIDPSDTYTKFNQNFKGKATLTVDTSSSTAYMQLNSLTSEDSAVYYCARSGVAFPYWGQGTTVTVSS
VL: DIQMTQSQKFMSTSIGDRVSVTCKASQNVGTNVAWYQQKPGQSPKSLIYSASHWYSGVPDRFTGSGSGTDFTLTISNVQSEDLAEYFCQQYNSYPYTFGGGTKLEIK
notes: human IgG1/kappa; also called 2H8_HCvar2 + 2H8_LCvar3
In the case of B9, the Kd is reported as 19.2 nM, the koff is reported as 0.000291 s⁻¹ and the kon is reported as 15200 M⁻¹ s⁻¹.

B10: 2H8.07 (antibody, human IgG1, V domains shown)
VH: EVQLQQSGPELVKPGASVKLSCKASGYTFTNFWIHWLKQRPGQGLEWIGMIDPSDSYTKYNQKFKAKATLTVDTSSSTTYMHLSSLTSEDSAVYYCARSGVAFPYWGQRTLVTVSA
VL: DIVMTQSQKFMSTSVGDRVSVTCKASQNVGTNVAWYQQKPGQSPKALIYSASHRYSGVPDRFTGSGSGTDFTLTISNVQSEDLAEYFCQQYNSYMYTFGGGTKLEIK
notes: human IgG1/kappa; also called 2H8_HC + 2H8_LCvar2
Binder B10 has a Kd of 20 nM, a koff of 0.000294 s⁻¹ and a kon of 14700 M⁻¹ s⁻¹.

B11: 2H8.38 (antibody, human IgG1, V domains shown)
VH: EVQLQQPGTELVRPGTSVKLSCKASGYTFTNYWMHWIKQRPGQGLEWIGMIDPSDTYTKFNQNFKGKATLTVDTSSSTAYMQLNSLTSEDSAVYYCARSGVAFPYWGQGTTVTVSS
VL: DILMTQSQKFMSTSVGDRVSVTCKASQNVGRNVAWYQQISGQSPKPLIYSASHRYSGVPDRFTGSGSGTDFTLTISNVQSEDLVEFFCQQYNSYPYTFGGGTKLEIK
notes: human IgG1/kappa; also called 2H8_HCvar2 + 2H8_LCvar7
Binder B11 has a Kd of 17.8 nM, a koff of 0.000329 s⁻¹ and a kon of 18500 M⁻¹ s⁻¹.

B12: 2H8.23 (antibody, human IgG1, V domains shown)
VH: EVQLQQPGAEVVRPGTSVKLSCKASGYTFTNYWMHWVKQRPGQGLEWIGMIDPSDNYTKYNQKLKGKATLTVDTSSSTANMHVNSLTSEDSAVYFCARSGVAFPYWGQGTLVTVSA
VL: DIVMTQSQKFMSTSVGDRVSITCKASQNVGTNVAWYQQKPGQSPKALIYSASYRYSGVPDRFTGSGSGTDFTLTISNVQSEDLAEYFCQQYNSYPYTFGGGTKLEIK
notes: human IgG1/kappa; also called 2H8_HCvar5 + 2H8_LCvar4
Binder B12 has a Kd of 79.4 nM, a koff of 0.00101 s⁻¹ and a kon of 12700 M⁻¹ s⁻¹.

B13: 2H8.19 (antibody, human IgG1, V domains shown)
VH: EVQLQQSGPELVKPGASVKLSCKASGYTFTNFWIHWLKQRPGQGLEWIGMIDPSDSYTKYNQKFKAKATLTVDTSSSTTYMHLSSLTSEDSAVYYCARSGVAFPYWGQRTLVTVSA
VL: DIVMTQSQKFMSTSVGDRVSITCKASQNVGTNVAWYQQKPGQSPKALIYSASYRYSGVPDRFTGSGSGTDFTLTISNVQSEDLAEYFCQQYNSYPYTFGGGTKLEIK
notes: human IgG1/kappa; also called 2H8_HC + 2H8_LCvar4
B13 was tested, and the Kd was 42.5 nM, the koff was 0.000674 s⁻¹ and the kon was 15900 M⁻¹ s⁻¹.

B14: 2H8.17 (antibody, human IgG1, V domains shown)
VH: EVQLQQPGAEVVRPGTSVKLSCKASGYTFTNYWMHWVKQRPGQGLEWIGMIDPSDNYTKYNQKLKGKATLTVDTSSSTANMHVNSLTSEDSAVYFCARSGVAFPYWGQGTLVTVSA
VL: DIQMTQSQKFMSTSIGDRVSVTCKASQNVGTNVAWYQQKPGQSPKSLIYSASHWYSGVPDRFTGSGSGTDFTLTISNVQSEDLAEYFCQQYNSYPYTFGGGTKLEIK
notes: human IgG1/kappa; also called 2H8_HCvar5 + 2H8_LCvar3
For B14, the Kd was 19 nM, the koff was 0.000259 s⁻¹ and the kon was 13600 M⁻¹ s⁻¹.

B15: 2H8.13 (antibody, human IgG1, V domains shown)
VH: EVQLQQSGPELVKPGASVKLSCKASGYTFTNFWIHWLKQRPGQGLEWIGMIDPSDSYTKYNQKFKAKATLTVDTSSSTTYMHLSSLTSEDSAVYYCARSGVAFPYWGQRTLVTVSA
VL: DIQMTQSQKFMSTSIGDRVSVTCKASQNVGTNVAWYQQKPGQSPKSLIYSASHWYSGVPDRFTGSGSGTDFTLTISNVQSEDLAEYFCQQYNSYPYTFGGGTKLEIK
notes: human IgG1/kappa; also called 2H8_HC + 2H8_LCvar3
Work on B15 yielded a Kd of 19.8 nM, a koff of 0.000308 s⁻¹ and a kon of 15500 M⁻¹ s⁻¹.

B16: 2H8.22 (antibody, human IgG1, V domains shown)
VH: EIQLQQSGTELVRPGTSVKLSCKASGYTFTNYWMHWVKQRPGQGLEWIGMIDPSAAYTNYNQNFKGKATLTVDTSSGTAYMQLSSLTSEDSAVYYCARSGVAFPYWGQGTTVTVSS
VL: DIVMTQSQKFMSTSVGDRVSITCKASQNVGTNVAWYQQKPGQSPKALIYSASYRYSGVPDRFTGSGSGTDFTLTISNVQSEDLAEYFCQQYNSYPYTFGGGTKLEIK
notes: human IgG1/kappa; also called 2H8_HCvar4 + 2H8_LCvar4
Work on B16 yielded a Kd of 304 nM, a koff of 0.0109 s⁻¹ and a kon of 35900 M⁻¹ s⁻¹.

B17: 2H8.06 (antibody, human IgG1, V domains shown)
VH: EVQLQQSGAELVRPGTSVKLSCKASGYTFNNYWMHWVKQRPGQGLEWIGMIDPSDDDIKNNQKFKGKATLTVDTSSSTAYMQLISLTSEDSAVYYCARSGVALPYWGQGTLVTVSA
VL: DIVMTQSQKFMSKSVGDTVSVTCKASQDVGRNVAWYQQKSGQSPKSLIYSASHRYSGVPDRFTGSGSGTDFTLTISNVQSEDLADYFCQQYNSYPYTFGGGTRLEIK
notes: human IgG1/kappa; also called 2H8_HCvar6 + 2H8_LC
B17 showed a Kd of 16 nM, a koff of 0.000264 s⁻¹ and a kon of 16500 M⁻¹ s⁻¹.

B18: 2H8.28 (antibody, human IgG1, V domains shown)
VH: EIQLQQSGTELVRPGTSVKLSCKASGYTFTNYWMHWVKQRPGQGLEWIGMIDPSAAYTNYNQNFKGKATLTVDTSSGTAYMQLSSLTSEDSAVYYCARSGVAFPYWGQGTTVTVSS
VL: DIVMTQSQKFMSTSVGDRVSVTCKASQNVGTNVAWYQQKSGQSPKALIYSASHRYSGVPDRFTGSGSGTDFTLTISNVQSEDLAEYFCQQYNSYPYTFGGGTKLEIK
notes: human IgG1/kappa; also called 2H8_HCvar4 + 2H8_LCvar5
Binder B18 has a Kd of 34 nM, a koff of 0.00062 s⁻¹ and a kon of 18200 M⁻¹ s⁻¹.

B19: 2H8.11 (antibody, human IgG1, V domains shown)
VH: EVQLQQPGAEVVRPGTSVKLSCKASGYTFTNYWMHWVKQRPGQGLEWIGMIDPSDNYTKYNQKLKGKATLTVDTSSSTANMHVNSLTSEDSAVYFCARSGVAFPYWGQGTLVTVSA
VL: DIVMTQSQKFMSTSVGDRVSVTCKASQNVGTNVAWYQQKPGQSPKALIYSASHRYSGVPDRFTGSGSGTDFTLTISNVQSEDLAEYFCQQYNSYMYTFGGGTKLEIK
notes: human IgG1/kappa; also called 2H8_HCvar5 + 2H8_LCvar2
In the case of B19, the Kd is reported as 17.7 nM, the koff is reported as 0.000235 s⁻¹ and the kon is reported as 13300 M⁻¹ s⁻¹.

B20: 2H8.10 (antibody, human IgG1, V domains shown)
VH: EIQLQQSGTELVRPGTSVKLSCKASGYTFTNYWMHWVKQRPGQGLEWIGMIDPSAAYTNYNQNFKGKATLTVDTSSGTAYMQLSSLTSEDSAVYYCARSGVAFPYWGQGTTVTVSS
VL: DIVMTQSQKFMSTSVGDRVSVTCKASQNVGTNVAWYQQKPGQSPKALIYSASHRYSGVPDRFTGSGSGTDFTLTISNVQSEDLAEYFCQQYNSYMYTFGGGTKLEIK
notes: human IgG1/kappa; also called 2H8_HCvar4 + 2H8_LCvar2
B20 showed a Kd of 62 nM, a koff of 0.000878 s⁻¹ and a kon of 14200 M⁻¹ s⁻¹.
